Among the data in patent publication US7662919 are HUVEC buds containing multiple filopodia values, retold here.

For the assay, the target named is Flt1/VEGFR1 (human) (UniProt P17948). Put plainly: cell-based or functional assay.
Chain of UniProt P17948 (P17948 27-1338): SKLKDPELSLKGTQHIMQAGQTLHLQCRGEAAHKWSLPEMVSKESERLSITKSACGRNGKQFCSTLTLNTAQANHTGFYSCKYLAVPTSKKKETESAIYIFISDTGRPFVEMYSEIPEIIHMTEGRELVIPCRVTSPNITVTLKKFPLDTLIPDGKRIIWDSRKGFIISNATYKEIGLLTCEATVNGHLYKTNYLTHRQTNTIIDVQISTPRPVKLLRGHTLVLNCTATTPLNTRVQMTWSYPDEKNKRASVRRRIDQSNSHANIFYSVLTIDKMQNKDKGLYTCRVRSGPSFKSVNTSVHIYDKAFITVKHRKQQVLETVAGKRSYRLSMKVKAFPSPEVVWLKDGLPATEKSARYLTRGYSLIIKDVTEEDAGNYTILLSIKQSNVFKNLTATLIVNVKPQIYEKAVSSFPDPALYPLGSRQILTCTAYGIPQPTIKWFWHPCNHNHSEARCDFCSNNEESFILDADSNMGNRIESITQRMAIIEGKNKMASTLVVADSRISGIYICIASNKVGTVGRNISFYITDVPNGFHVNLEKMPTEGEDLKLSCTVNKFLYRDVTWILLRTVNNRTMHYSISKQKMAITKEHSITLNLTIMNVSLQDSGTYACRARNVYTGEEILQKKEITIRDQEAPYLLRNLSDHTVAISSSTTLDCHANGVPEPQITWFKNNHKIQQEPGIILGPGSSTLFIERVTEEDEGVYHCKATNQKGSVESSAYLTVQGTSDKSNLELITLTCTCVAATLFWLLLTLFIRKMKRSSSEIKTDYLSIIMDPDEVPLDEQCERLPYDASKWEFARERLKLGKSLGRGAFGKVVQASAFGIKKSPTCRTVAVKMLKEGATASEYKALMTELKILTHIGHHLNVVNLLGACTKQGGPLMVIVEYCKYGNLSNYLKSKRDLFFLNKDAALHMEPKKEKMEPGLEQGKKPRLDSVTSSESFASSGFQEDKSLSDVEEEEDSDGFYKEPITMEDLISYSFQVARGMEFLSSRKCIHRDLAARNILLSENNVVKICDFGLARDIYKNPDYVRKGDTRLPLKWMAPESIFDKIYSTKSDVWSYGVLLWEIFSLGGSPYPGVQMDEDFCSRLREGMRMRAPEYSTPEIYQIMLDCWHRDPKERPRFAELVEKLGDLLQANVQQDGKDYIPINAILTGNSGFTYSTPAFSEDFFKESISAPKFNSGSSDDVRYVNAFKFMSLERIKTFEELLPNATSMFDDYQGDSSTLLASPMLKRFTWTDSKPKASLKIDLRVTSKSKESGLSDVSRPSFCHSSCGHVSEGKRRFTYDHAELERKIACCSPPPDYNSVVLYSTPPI

For the substance PlGF (ligand), the HUVEC buds containing multiple filopodia turned out to be 250%.
